Data: PMC8880691, “Impact of Linker Modification and PEGylation of Vancomycin Conjugates on Structure-Activity Relationships and Pharmacokinetics” (Pharmaceuticals, 2022)
Counter-ions that a name gives are not always drawn.

What was measured:
erythrocytes = type: cell-based, human
Protocol: To determine the toxicity to red blood cells and thus confirm the selectivity to bacteria, a hemoglobin release assay was carried out with VAN1, VAN2 and VAN3, as well as the PEGylated conjugate, VAN:PEG1.
To exclude lytic activity and to evaluate the toxicological potential of the conjugates, hemolysis studies were performed as previously described. Briefly, fresh heparinized blood of four male, fasted volunteers was taken, and erythrocytes were purified by centrifugation of the blood at 2500 rpm for 10 min. The supernatant was removed, and the resulting pellet was washed with PBS at least three times, until the supernatant remained clear. The conjugates were serially diluted from stock solutions (in phosphate-buffered saline) in a 96-well plate at concentrations ranging from 120 µg/mL to 0.23 µg/mL (VAN1) or 16 µg/mL to 0.03 µg/mL (VAN2, VAN3 and VAN:PEG1), resulting in a final volume of 50 µL. A solution of Triton®X-100 in PBS was used as positive control. Finally, 50 µL of the washed erythrocytes was loaded into each well. After incubation for 30 min at 37 °C, 75 µL PBS was added to each well, and the plates were centrifuged for 5 min at 4000 rpm. A total of 50 µL of the supernatants was then transferred into a new polystyrene, flat-bottom 96-well plate, and the absorbances were measured at 554 nm using a Tecan microplate reader. Hemolysis was calculated as follows: Hemolysis %=100×Asubstance−Aneg. control/ATriton−Aneg. control
The negative control was erythrocytes, treated as described but using only PBS.

B. subtilis DSM10 = assay: microbe, parasite or virus in culture; type: cell-based
Protocol: (§1) The conjugates were tested in microdilution assays according to CLSI (Clinical and Laboratory Standards Institute) and EUCAST (European Committee on Antimicrobial Susceptibility Testing) guidelines on both vancomycin-sensitive and-resistant Gram-positive bacterial strains.
(§2) Antimicrobial activity assays were performed by microdilution and conducted in accordance with CLSI and EUCAST guidelines. Serial dilutions in MHB II (cation adjusted) were performed on 96-well plates using water-stock solutions of the compounds at different concentrations. Overnight cultures of bacterial strains were used to obtain bacteria in the logarithmic growth phase. Bacteria were adjusted to a McFarland corresponding to 1 × 10^8 cfu/mL. After a 1:100 dilution, the culture broth was loaded onto the 96-well polypropylene plates, resulting in a final bacterial concentration of 5 × 10^5 cfu/mL. Plates were then incubated at 37 ± 1 °C for 18–24 h. The MICs were assessed as the lowest concentration without visible growth.
Table S1. Minimum inhibitory concentration against B. subtilis DSM10.
activity. Shown is the median of at least three independent measurements (range is shown in brackets).
Compound Minimum Inhibitory Concentration
against B. subtilis DSM10 [mg/L] […]
[mg/L] [% hemolysis] [% hemolysis] [% hemolysis] […]

[1] = test system: vanC vancomycin-resistant enterococci; assay: Microdilution assay on vancomycin-resistant strains of the vanC type; type: cell-based; details: resistant strains of the vanC type (low-level resistant)
Protocol: as §1, §2

[2] = Biodistribution study with excised organs, 125I-labeled compounds; type: in vivo, female Wistar rats; details: rat
Protocol: (§3) Molecular imaging and biodistribution studies were performed for VAN1 and VAN2, as well as for VAN:PEG1 and VAN:PEG2, using female Wistar rats.
To further compare the two modification strategies, the biodistribution profiles of VAN1, VAN2 and vancomycin were compared using excised organs. This study confirms significant liver accumulation in most cases.
(§4) For biodistribution and pharmacokinetic studies, compounds were radiolabeled with ^125I. The previously described method for the insertion of an additional D-tyrosine to the N-terminus of the peptide moiety was used to enable […] substitution for VAN1 and VAN2 [11]. For the PEGylated derivatives, VAN:PEG1 and VAN:PEG2, tyrosine-modified FU002y was used to synthesize the intermediate. Radiolabeling was performed using the chloramine T method as previously described. Thus, a 1 mM stock solution of the respective compound in phosphate buffer/dimethyl sulfoxide was prepared. The required amount of the radionuclide (^125I) was added to a mixture of 25 μL of the stock solution and 25 μL of phosphate buffer (0.25 mM; pH = 7.5). Purification of the labeled compounds was performed by semi-preparative HPLC. Analysis was conducted by radio HPLC (Agilent 1100 series) using a Chromolith® Performance RP-18e, 100 × 3 mm column, applying a linear gradient of 0.1% TFA in water (eluent A) to 0.1% TFA in acetonitrile (eluent B) within 5 min (flow rate, 2 mL/min; UV absorbance, λ = 214 nm; γ-detection). Animals were anaesthetized by isoflurane inhalation, and appropriate amounts of the radiolabeled conjugate dissolved in 100 µL 0.9% NaCl solution were injected into the tail vein. Cumulative scintigraphic images were taken after 10 min and 1, 2, 3, 5 and 24 h. For the biodistribution studies, animals were sacrificed at the indicated points in time. The activity of the weighed organs was measured in comparison with standards. Tissue-associated activity was related to the total injected dose (ID) and expressed as a percentage of the total injected dose per gram of tissue (%ID/g). The data were calculated afterwards to obtain the respective organ/organ or organ/blood ratios.

[3] = test system: vanB vancomycin-resistant enterococci; assay: Microdilution assay on vancomycin-resistant strains of the vanB type; type: cell-based
Protocol: as §1, §2

[4] = Molecular imaging (scintigraphy) of 125I-labeled compounds; type: in vivo, female Wistar rats; details: rat
Protocol: as §3, §4

[5] = 10 min post injection, tail vein, from %ID/g of excised organs

SMILES	hemolytic activity (erythrocytes)	Minimum Inhibitory Concentration against B. subtilis DSM10 (B. subtilis DSM10)	overcoming the molar-resistance breakpoint (EUCAST), vanC type [1]	Ratio Kidney/Blood ([2]; in vivo)	Ratio Liver/Blood ([2]; in vivo)	Ratio Liver/Kidney ([2]; in vivo)	overcoming the molar-resistance breakpoint (EUCAST), vanB type [3]	pharmacokinetic behavior by molecular imaging ([4]; in vivo)	MIC (B. subtilis DSM10; Bacillus subtilis, DSM10, read-out: Minimum Inhibitory Concentration against B. subtilis DSM10)	Ratio Kidney/Blood [2, 5]	Ratio Liver/Blood [2, 5]	Ratio Liver/Kidney [2, 5]	pharmacokinetic behavior by molecular imaging ([4]; 125I-labeled, tail vein injection, scintigraphic images 10 min to 24 h)
CC(C)C[C@H](C(=O)N[C@H]1C(=O)N[C@@H](CC(N)=O)C(=O)N[C@H]2C(=O)N[C@H]3C(=O)N[C@H](C(=O)N[C@H](C(=O)O)c4cc(O)cc(O)c4-c4cc3ccc4O)[C@H](O)c3ccc(c(Cl)c3)Oc3cc2cc(c3O[C@@H]2O[C@H](CO)[C@@H](O)[C@H](O)[C@H]2O[C@H]2C[C@](C)(N)[C@H](O)[C@H](C)O2)Oc2ccc(cc2Cl)[C@H]1O)N(C)C(=O)CCOCCOCCOCCOCCOCCOCCOCCOCCOCCOCCOCCOCCNC(=O)CCN1C(=O)CC(SC[C@H](NC(=O)[C@H](CCCNC(=N)N)NC(=O)[C@H](CCCNC(=N)N)NC(=O)[C@H](CCCNC(=N)N)NC(=O)[C@H](CCCNC(=N)N)NC(=O)[C@H](CCCNC(=N)N)NC(=O)[C@@H](N)CCCNC(=N)N)C(N)=O)C1=O (stereo partly drawn) [VAN2]	None of the compounds showed significant hemolytic activity	2 (1–4) mg/L	able to overcome the molar-resistance breakpoint	10.09	9.25	0.92	able to overcome the molar-resistance breakpoint	rapid liver accumulation can still be observed, in addition to renal elimination					
CN[C@H](CC(C)C)C(=O)N[C@H]1C(=O)N[C@@H](CC(N)=O)C(=O)N[C@H]2C(=O)N[C@H]3C(=O)N[C@H](C(=O)N[C@H](C(=O)O)c4cc(O)cc(O)c4-c4cc3ccc4O)[C@H](O)c3ccc(c(Cl)c3)Oc3cc2cc(c3O[C@@H]2O[C@H](CO)[C@@H](O)[C@H](O)[C@H]2O[C@H]2C[C@](C)(N)[C@H](O)[C@H](C)O2)Oc2ccc(cc2Cl)[C@H]1O [Vancomycin, vancomycin hydrochloride]									0.25 µg/mL	2.16	0.36	0.17	fast renal elimination
CC(C)C[C@H](C(=O)N[C@H]1C(=O)N[C@@H](CC(N)=O)C(=O)N[C@H]2C(=O)N[C@H]3C(=O)N[C@H](C(=O)N[C@H](C(=O)O)c4cc(O)cc(O)c4-c4cc3ccc4O)[C@H](O)c3ccc(c(Cl)c3)Oc3cc2cc(c3O[C@@H]2O[C@H](CO)[C@@H](O)[C@H](O)[C@H]2O[C@H]2C[C@](C)(N)[C@H](O)[C@H](C)O2)Oc2ccc(cc2Cl)[C@H]1O)N(C)C(=O)CCCCCCCCCCN1C(=O)CC(SC[C@H](NC(=O)[C@H](CCCNC(=N)N)NC(=O)[C@H](CCCNC(=N)N)NC(=O)[C@H](CCCNC(=N)N)NC(=O)[C@H](CCCNC(=N)N)NC(=O)[C@H](CCCNC(=N)N)NC(=O)[C@@H](N)CCCNC(=N)N)C(N)=O)C1=O (stereo partly drawn) [VAN1]	None of the compounds showed significant hemolytic activity	1 (0.5–1) mg/L		2.22	10.13	4.47		accumulates quickly in the liver					
CC(C)C[C@H](C(=O)N[C@H]1C(=O)N[C@@H](CC(N)=O)C(=O)N[C@H]2C(=O)N[C@H]3C(=O)N[C@H](C(=O)N[C@H](C(=O)O)c4cc(O)cc(O)c4-c4cc3ccc4O)[C@H](O)c3ccc(c(Cl)c3)Oc3cc2cc(c3O[C@@H]2O[C@H](CO)[C@@H](O)[C@H](O)[C@H]2O[C@H]2C[C@](C)(N)[C@H](O)[C@H](C)O2)Oc2ccc(cc2Cl)[C@H]1O)N(C)C(=O)CN1C(=O)CC(SC[C@H](NC(=O)[C@H](CCCNC(=N)N)NC(=O)[C@H](CCCNC(=N)N)NC(=O)[C@H](CCCNC(=N)N)NC(=O)[C@H](CCCNC(=N)N)NC(=O)[C@H](CCCNC(=N)N)NC(=O)[C@@H](N)CCCNC(=N)N)C(N)=O)C1=O (stereo partly drawn) [VAN3]	None of the compounds showed significant hemolytic activity	< 0.125 mg/L											
